Drawing on patent publication US20100297712A1, this text covers relative activity per expressed VDH, against the transformant expressing VDH solely and Activity (mmol/min/mol of VDH), VD3 conversion by Rhodococcus erythropolis transformant pTipQT-VDH-thcCD (mmol/min/mol of VDH) for 3 molecules.

Data set [1] addresses vitamin D3 hydroxylase (VDH) of Pseudonocardia autotrophica NBRC12743 strain (Pseudonocardia autotrophica) (UniProt C4B644). The data set is described as follows: cell-based or functional assay.
Data set [2] deals with T1, ferredoxin (ThcC) derived from Rhodococcus erythropolis strain NI86/21, P43493.
T1 chain: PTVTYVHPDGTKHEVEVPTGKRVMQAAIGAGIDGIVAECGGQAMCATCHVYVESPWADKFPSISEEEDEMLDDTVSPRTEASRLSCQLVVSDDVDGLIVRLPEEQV

The target of data set [3] is T2, vitamin D3 hydroxylase (VDH) of Pseudonocardia autotrophica NBRC12743 strain.
T2 chain: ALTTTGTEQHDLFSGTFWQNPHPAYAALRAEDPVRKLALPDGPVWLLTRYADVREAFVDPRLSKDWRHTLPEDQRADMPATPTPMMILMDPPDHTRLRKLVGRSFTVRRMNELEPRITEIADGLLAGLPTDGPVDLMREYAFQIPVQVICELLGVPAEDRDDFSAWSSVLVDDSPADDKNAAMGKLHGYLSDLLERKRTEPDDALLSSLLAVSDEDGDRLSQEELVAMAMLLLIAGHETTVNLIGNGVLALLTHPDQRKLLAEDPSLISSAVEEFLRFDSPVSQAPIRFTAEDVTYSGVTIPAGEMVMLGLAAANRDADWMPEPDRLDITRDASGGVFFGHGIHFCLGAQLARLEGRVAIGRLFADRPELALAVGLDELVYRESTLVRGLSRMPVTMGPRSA

On to “ferredoxin (ThcC) derived from Rhodococcus erythropolis strain NI86/21 (from UniProt P43493 2-107)”, for which the relative activity per expressed VDH, against the transformant expressing VDH solely in data set [1] came to 6 fold.

B1: vitamin D3 hydroxylase (VDH) of Pseudonocardia autotrophica NBRC12743 strain (protein)
chain: T2 chain
In turn, B1 had an Activity (mmol/min/mol of VDH), VD3 conversion by Rhodococcus erythropolis transformant pTipQT-VDH-thcCD (mmol/min/mol of VDH) in data set [2] of 119.

B2: ferredoxin reductase (ThcD) derived from Rhodococcus erythropolis strain NI86/21 (protein)
chain: SIVIIGSGQAGFEAAVSLRSHGFSGTITLVGDEPGVPYQRPPLSKAYLHSDPDRESLALRPAQYFDDHRITLTCGKPVVRIDRDAQRVELIDATAIEYDHLILATGARNRLLPVPGANLPGVHYLRTAGEAESLTSSMASCSSLVVIGAGFIGLEVAAAARKKGLDVTVVEAMDRPMARALSSVMSGYFSTAHTEHGVHMRLSTGVKTINAADGRAAGVTTNSGDVIHADAVVVGIGVVPNIELAALTGLPVDNGIVVDEYLRTPDENISAIGDCAAYPIPGKAGLVRLESVQNAVDQARCLAAQLTGTSTHYRSVPWFWSEQYESKLQMAGLTAGADTHVVRGSVDSGVFSIFCFLGTRLLGVESVNKPRDHMAARKILATEMPLTPEQAADTDFDLKLAIARHKDTHKDEVASADIGERQVVAS
In data set [3], B2 registered an Activity (mmol/min/mol of VDH), VD3 conversion by Rhodococcus erythropolis transformant pTipQT-VDH-thcCD (mmol/min/mol of VDH) of 119 and a relative activity per expressed VDH, against the transformant expressing VDH solely of 6 fold.
